Test results reported in patent US20080044436A1, “Method for Screening and Compositions for Treating Cancers” (priority 2004, published 2008).

What was measured:
Format in all cases: cell-based, human
[1] = tested on: proximal Sp1 response element of the p21 and p27 promoters; test: Chromatin immunoprecipitation with anti-TReP-132 antibody in T47-D cells; settings: DNA from progesterone-treated vs untreated T47-D cells
Protocol: FIG. 14C: Chromatin was from T47-D cells treated or not with […] progesterone. IPs were carried out with anti-TReP-132 antibodies ([…]). Controls were DNA-free PCR products (column 1, H2O), PCR products of unprecipitated genomic DNA (columns 2 and 3, input), immunoprecipitations with no antibody (columns 4 and 5, no Ab) or with irrelevant antibody (columns 6 and 7, anti-HA). The extracted DNA was amplified using the same primers as in FIG. 13C.
HTO cells incubated in the presence of Dox or T47-D cells were grown to 70% confluence in petri dishes (150 mm diameter). For HTO cells, doxycycline was removed from half of the dishes 48 hours before lysis. T47-D cells were incubated with 30 nM progesterone or with ethanol containing 0.2% BSA-RPMI for 2.5 hours before lysis. Cell lysates were then sonicated on ice, 15 times for 15 seconds at 45 second intervals. A volume of lysate corresponding to 4×10^6 cells was immunoprecipitated by using 4 μg of antibody (indicated earlier) and an anti-HA antibody as negative control. The same volume was set aside for later purification of genomic DNA. […]

HeLa cells = test: Cell proliferation of HeLa Tet-off cells with inducible TReP-132 (HTO-GFP/TReP-132); settings: HTO-GFP/TReP-132 cells, Dox removed, after 4 days of culture; with Dox about 16 hours
Text: HeLa Tet-off cells expressing the tTA transactivator under the control of tetracycline or doxycycline (Dox) (Clontech Laboratories, Palo Alto, Calif.) were stably transfected with the pBI-EGFP-TReP-132 vector or the pBI-EGFP control vector. In order to select stably transfected cells, the pcDNA6 plasmid (Invitrogen, Ontario, CA) containing the blasticidin resistance gene was cotransfected at a ratio of 1:50. For these transfections, the cells were first seeded in 6-well plates at an initial density of 1×10^5 cells per well, incubated for 24 hours, then transfected with ExGen 500 (MBI Fermentas, Flamborough, Ontario, CA) at a ratio of 5 μl of ExGen 500 for a total of 1 μg of plasmid such as described hereinabove in the section “Colony formation assays”. 48 hours post-transfection, cells were selected for 2 weeks with blasticidin (Sigma-Aldrich CA Ltd.). Clearly visible colonies were then were picked and subcloned on 12-well plates to enable growth. […]
The cell proliferation rate was determined by the cellular DNA content using the fluorochorome DABA ([…]). […] Fluorescence was measured on a Perkin-Elmer LS-2B Filter Fluorimeter at an excitation wavelength of 400 nm and an emission wavelength of 508 nm. The DNA content was calculated from a standard curve of known quantities of salmon sperm DNA.

p27 promoter = test: Luciferase reporter assay in HeLa cells, p27 promoter; settings: 0.3 μg TReP-132 expression vector, dose-dependent
Protocol: The pGL2 and pGL3 reporter constructs (100 ng) were cotransfected with the indicated amounts of expression vectors and 10 ng of the control plasmid pRL.Null. The amount of plasmid was then normalized with the empty vector pcDNA3. After 12 hours of transfection, the medium was changed and cells were incubated for an additional 10 and 34 hours, respectively. During this period, T47-D cells were cultured in the presence and absence of progesterone (30 nM). The cells were then harvested and cell lysates (20 μl) were assayed for luciferase activity (Dual Luciférase™ Reporter Assay System, Promega, Madison, Wis., USA) in a Berthold LUMAT LB9501 luminometer. The transfections were performed in triplicate and each experiment was repeated at least three times.
TReP-132 activation of the p21, p27 and p16 cyclin kinase inhibitor promoters was studied by transfection of HeLa and T47-D cells. HeLa cells were seeded in 24-well plates at an initial density of 15,000 cells per well and transfected the next day with ExGen 500 (MBI Fermentas, Flamborough, Ontario, Canada) at a ratio of 4 μl of ExGen 500 per 0.5 μg DNA. T47-D cells were seeded at a density of 100,000 cells per well and transfected the next day with FuGENE 6 reagent (Roche Molecular Biochemicals, Laval, Canada), at a ratio of 3 μl of FuGENE per 1 μg of DNA. […]

CC(=O)[C@H]1CC[C@H]2[C@@H]3CCC4=CC(=O)CC[C@]4(C)[C@H]3CC[C@]12C [progesterone, reference compound]
TReP-132 binding to proximal Sp1 response element of p21 and p27 promoters [1]: much more pronounced

B1: TReP-132: Transcriptional Regulating Protein of 132 kDa, polypeptide comprising SEQ ID NO: 2; here expressed in cells from vectors (protein)
chain: MGDQQLYKTNHVAHGSENLFYQQPPLGVHSGLNHNYGNAVTGGGMDAPQASPISPHFPQDTRDGLGLPVGSKNLGQMDTSRQGGWGSHAGPGNHVQLRGNLANSNMMWGAPAQAEPTDGYQYTYSQASEIRTQKLTSGVLHKLDSFTQVFANQNLRIQVNNMAQVLHTQSAVMDGAPDSALRQLLSQKPMEPPAPAIPSRYQQVPQQPHPGFTGGLSKPALQVGQHPTQGHLYYDYQQPLAQVPVQGGQPLQAPQMLSQHMQQMQQHQYYPPQQQQQAGQQRISMQEIQTQPQQIRPSQPQPPPQQQQPQQLQLQQRQGSMQIPQYYQPQPMMQHLQEQQQQQMHLQPPSYHRDPHQYTPEQAHTVQLIPLGSMSQYYYQEPQQPYSHPLYQQSHLSQHQQREDSQLKTYSSDRQAQAMLSSHGDLGPPDTGMGDPASSDLTRVSSTLPHRPLLSPSGIHLNNMGPQHQQLSPSAMWPQMHLPDGRAQPGSPESSGQPKGAFGEQFDAKNKLTCSICLKEFKNLPALNGHMRSHGGMRASPNLKQEEGEKVLPPQPQPPLPPPPPPPPPPQLPPEAESLTPMVMPVSVPVKLLPPKPSSQGFTNSTVAAPSARDKPASSMSDDEMPVLEIPRKHQPSVPKAEEPLKTVQEKKKFRHRPEPLFIPPPPSYNPNPAASYSGATLYQSQLRSPRVLGDHLLLDPTHELPPYTPPPMLSPVRQGSGLFSNVLISGHGPGAHPQLPLTPLTPTPRVLLCRSNSIDGSNVTVTPGPGEQTVDVEPRINIGLRFQAEIPELQDISALAQDTHKATLVWKPWPELENHDLQQRVENLLNLCCSSALPGGGTNSEFALHSLFEAKGDVMVALEMLLLRKPVRLKCHPLANYHYAGSDKWTSLERKLFNKALATYSKDFIFVQKMVKSKTVAQCVEYYYTWKKIMRLGRKHRTRLAEIIDDCVTSEEEEELEEEEEEDPEEDRKSTKEEESEVPKSPEPPPVPVLAPTEGPPLQALGQPSGSFICEMPNCGAVFSSRQALNGHARIHGGTNQVTKARGAIPSGKQKPGGTQSGYCSVKSSPSHSTTSGETDPTTIFPCKECGKVFFKIKSRNAHMKTHRQQEEQQRQKAQKAAFAAEMAATIERTTGPVGAPGLLPLDQLSLIKPIKDVDILDDDVVQQLGGVMEEAEVVDTDLLLDDQDSVLLQGDAEL
doubling time (HeLa cells): approximately 60 hours
p27 promoter induction (p27 promoter): approximately 7 fold
